Reference: US20220313738A1 (NANJING LEGEND BIOTECH, published 2022)

Tests used:
Test in all cases: cell-based or functional assay
[1] = target: M663 (CD8α SP-BCMA scFv-CD8α hinge-CD8α TM-ISD)
[2] = target: M665 (CD8α SP-BCMA scFv-CD8α hinge-CD8α TM-ISD)
[3] = target: M666 (CD8α SP-BCMA scFv-CD8α hinge-CD8α TM-ISD)

B1: wildtype SIV Nef (other)
chain: MGSSNSKRQQQGLLKLWRGLRGKPGADWVLLSDPLIGQSSTVQEECGKALKKSWGKGKMTPDGRRLQEGDTFDEWDDDEEEVGFPVQPRVPLRQMTYKLAVDFSHFLKSKGGLDGIYYSERREKILNLYALNEWGIIDDWQAYSPGPGIRYPRVFGFCFKLVPVDLHEEARNCERHCLMHPAQMGEDPDGIDHGEVLVWKFDPKLAVEYRPDMFKDMHEHAKR
- relative ISD-modified CAR positive rate (FACS), day 3, against empty vector control [1]: 46.7%
- relative ISD-modified CAR positive rate (FACS), day 3, against empty vector control [2]: 82.3%
- relative ISD-modified CAR positive rate (FACS), day 3, against empty vector control [3]: 57%

B2: SIV Nef M116 (other)
chain: MGSSNSKRQQQGLLKLWRGLRGKPGADWVLLSDPLIGQSSTVQEECGKALKKSWGKGKMTPDGRRLQEGDTFDEWDDDEEEVGFPVQPRVPLRQMTYKLAVDFSHFLKSKGGLDGIYYSERREKILNLYALNEWGIIDDWQAYSPGPGIRYPRVFGFCFKLVPVDLHEEARNCERHCAAHPAQMGEDPDGIDHGEVLVWKFDPKLAVEYRPDMFKDMHEHAKR
- relative ISD-modified CAR positive rate (FACS), day 3, against empty vector control [1]: 50.9%
- relative ISD-modified CAR positive rate (FACS), day 3, against empty vector control [2]: 70.3%
- relative ISD-modified CAR positive rate (FACS), day 3, against empty vector control [3]: 56.2%
